In assay [1] the target is T1, mouse FcγRIII (His-tagged, Sino Biological 50326-M08H) (mouse, UniProt P08508 31-215).
T1 construct: also called mFcγRIII
T1 sequence (looked up): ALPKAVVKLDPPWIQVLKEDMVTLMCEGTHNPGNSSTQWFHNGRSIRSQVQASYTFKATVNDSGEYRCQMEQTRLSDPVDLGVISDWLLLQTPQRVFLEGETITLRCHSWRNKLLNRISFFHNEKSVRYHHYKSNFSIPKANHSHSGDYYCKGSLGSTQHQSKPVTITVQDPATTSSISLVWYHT
In words: BLI (Octet QK384): His-tagged receptor on anti-Penta-HIS biosensor, antibody as analyte, PBS pH 7.2, global 1:1 fit; experiment 2.

Assay [2] addresses T1, mouse FcγRIII (His-tagged, Sino …). Kind of assay: BLI summary table, mFcgRIII, pH 7.2.
Assay [3] has as its target T2, mouse FcRn (His-tagged, Sino Biological CT009-H08H) (mouse, UniProt Q61559 22-297).
T2 construct: also called mFcRn
T2 sequence (looked up): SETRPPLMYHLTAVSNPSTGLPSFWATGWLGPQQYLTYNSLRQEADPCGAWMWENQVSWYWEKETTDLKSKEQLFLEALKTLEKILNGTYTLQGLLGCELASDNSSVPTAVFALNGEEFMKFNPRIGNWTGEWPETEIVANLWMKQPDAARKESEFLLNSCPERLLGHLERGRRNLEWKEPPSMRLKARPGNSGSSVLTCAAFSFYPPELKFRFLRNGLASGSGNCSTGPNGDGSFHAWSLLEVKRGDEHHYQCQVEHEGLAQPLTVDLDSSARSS
In words: BLI summary table, mFcRn, pH 5.8.

Assay [4] addresses T3, mouse FcγRIV (His-tagged, Sino Biological 50036-M08H) (mouse, UniProt A0A0B4J1G0 21-203).
T3 construct: also called mFcγRIV; not shown: the histidine tag (and any linker) of the Sino Biological construct 50036-M08H
T3 sequence: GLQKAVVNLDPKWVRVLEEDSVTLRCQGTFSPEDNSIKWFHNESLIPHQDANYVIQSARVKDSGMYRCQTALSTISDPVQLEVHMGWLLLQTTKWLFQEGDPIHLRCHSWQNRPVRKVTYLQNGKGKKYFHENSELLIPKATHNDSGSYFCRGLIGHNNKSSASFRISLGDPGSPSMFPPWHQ
Kind of assay: BLI summary table, mFcgRIV, pH 7.2.

The target in assay [5] is T4, mouse FcγRIIb (His-tagged, Sino Biological 50030-M08H) (mouse, UniProt P08101 30-217).
T4 construct: also called mFcγRIIb
T4 sequence (looked up): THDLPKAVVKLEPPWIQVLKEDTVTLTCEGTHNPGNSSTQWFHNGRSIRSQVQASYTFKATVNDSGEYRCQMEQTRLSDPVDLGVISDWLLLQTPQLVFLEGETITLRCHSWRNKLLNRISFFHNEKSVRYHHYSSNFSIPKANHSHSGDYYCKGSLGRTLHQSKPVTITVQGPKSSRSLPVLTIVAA
In words: BLI summary table, mFcgRIIb, pH 7.2.

The target in assay [6] is T2, mouse FcRn (His-tagged, Sino Biological …). In words: BLI summary table, mFcRn, pH 5.8. The source holds these as a separate data set.
Assay [7] deals with T3, mouse FcγRIV (His-tagged, Sino …). In words: BLI (Octet QK384): His-tagged receptor on anti-Penta-HIS biosensor, antibody as analyte, PBS pH 7.2, global 1:1 fit; experiment 2.
Assay [8] shares this target. In words: BLI summary table, mFcgRIV, pH 7.2. This is another data set of the same source.
Assay [9] shares this target. Kind of assay: BLI summary table, mFcgRIV, pH 7.2. The source holds these as a separate data set.
The target of assay [10] is T4, mouse FcγRIIb (His-tagged, Sino …). In words: BLI summary table, mFcgRIIb, pH 7.2. This is another data set of the same source.
In assay [11] the target is T2, mouse FcRn (His-tagged, Sino Biological …). Kind of assay: BLI summary table, mFcRn, pH 5.8. The source holds these as a separate data set.
The target in assay [12] is T4, mouse FcγRIIb (His-tagged, Sino …). In words: BLI summary table, mFcgRIIb, pH 7.2. This is another data set of the same source.
Assay [13] deals with T1, mouse FcγRIII (His-tagged, Sino …). In words: BLI summary table, mFcgRIII, pH 7.2. This is another data set of the same source.
In assay [14] the target is T4, mouse FcγRIIb (His-tagged, Sino …). Kind of assay: BLI (Octet QK384): His-tagged receptor on anti-Penta-HIS biosensor, antibody as analyte, PBS pH 7.2, global 1:1 fit; experiment 2.
Assay [15] deals with T1, mouse FcγRIII (His-tagged, Sino …). Kind of assay: BLI summary table, mFcgRIII, pH 7.2. The source holds these as a separate data set.
Assay [16] has as its target T2, mouse FcRn (His-tagged, Sino Biological …). Kind of assay: BLI (Octet QK384): His-tagged mFcRn on anti-Penta-HIS biosensor, antibody as analyte, PBS pH 5.8, global 1:1 fit; experiment 2.
Assay [17] shares this target. In words: BLI (Octet QK384): His-tagged mFcRn on anti-Penta-HIS biosensor, antibody as analyte, PBS pH 5.8, global 1:1 fit.
Assay [18] has as its target T3, mouse FcγRIV (His-tagged, Sino …). In words: BLI (Octet QK384): His-tagged receptor on anti-Penta-HIS biosensor, antibody as analyte, PBS pH 7.2.
Assay [19] deals with T4, mouse FcγRIIb (His-tagged, Sino …). Kind of assay: BLI (Octet QK384): His-tagged receptor on anti-Penta-HIS biosensor, antibody as analyte, PBS pH 7.2, global 1:1 fit.
Assay [20] deals with T1, mouse FcγRIII (His-tagged, Sino …). The description is as above.

We go through 2 molecules from patent US20250313631A1 (HUMMINGBIRD BIOSCIENCE PTE, published 2025).

Where “and” joins values, the source holds several entries; their conditions need not be identical. Equal values may be shown once.

B1: 4M2-C12 mIgG2a (antibody)
heavy: EVKLVESGPGLVKPSQSLSLTCTVTGYSITSDYAWNWIRQFPGNKLEWMGYITYSGNISYNPSLRSRISITRDTSKNQFFLQLNSVTPEDTATYSCARSLYYPWYFDVWGAGTTVTVSSAKTTAPSVYPLAPVCGDTTGSSVTLGCLVKGYFPEPVTLTWNSGSLSSGVHTFPAVLQSDLYTLSSSVTVTSSTWPSQSITCNVAHPASSTKVDKKIEPRGPTIKPCPPCKCPAPNLLGGPSVFIFPPKIKDVLMISLSPIVTCVVVDVSEDDPDVQISWFVNNVEVHTAQTQTHREDYNSTLRVVSALPIQHQDWMSGKEFKCKVNNKDLPAPIERTISKPKGSVRAPQVYVLPPPEEEMTKKQVTLTCMVTDFMPEDIYVEWTNNGKTELNYKNTEPVLDSDGSYFMYSKLRVEKKNWVERNSYSCSVVHEGLHNHHTTKSFSRTPGK
light: DIVITQTPAILSTSPGEKVTMTCRASSSVGYIHWYQQKPGSSPKPWIYATSNLASGVPARFSGSGSGTSNSLTITRVEAEDAATYYCQQWSSYPPITFGGGTKLEVKRADAAPTVSIFPPSSEQLTSGGASVVCFLNNFYPKDINVKWKIDGSERQNGVLNSWTDQDSKDSTYSMSSTLTLTKDEYERHNSYTCEATHKTSTSPIVKSFNRNEC
notes: mouse IgG2a format, made in CHO cells; also called 4M2-C12 IgG2a
Regarding B1, the Kd in [1] is 977 nM; in assay [4], 258 nM and 372 nM; in assay [5] it was 876 nM and 2190 nM; in [7] it was 372 nM; in assay [11] it was 31.5 nM and 49.5 nM; in [14] it was 2190 nM. In addition, the Kd in assay [15] is 794 nM and 977 nM; in assay [16] it was 49.6 nM. Moreover, the off-rate (koff) in [1] was 0.066 s⁻¹; in [2] it was 0.044 s⁻¹ and 0.066 s⁻¹; in assay [6] it was 0.0059 s⁻¹ and 0.011 s⁻¹; in assay [7] it was 0.034 s⁻¹; in assay [8], 0.025 s⁻¹ and 0.034 s⁻¹; in assay [12], 0.045 s⁻¹ and 0.12 s⁻¹. For the same molecule, the koff was 0.12 s⁻¹ in [14] and 0.011 s⁻¹ in assay [16]. Also, the association rate constant (kon) in assay [1] was 67000 M⁻¹ s⁻¹; in [3], 190000 M⁻¹ s⁻¹ and 220000 M⁻¹ s⁻¹; in [7] it was 92000 M⁻¹ s⁻¹; in assay [9], 96000 M⁻¹ s⁻¹ and 92000 M⁻¹ s⁻¹; in assay [10], 51000 M⁻¹ s⁻¹ and 55000 M⁻¹ s⁻¹; in [13], 55000 M⁻¹ s⁻¹ and 67000 M⁻¹ s⁻¹. For the same molecule, the kon in assay [14] was determined as 55000 M⁻¹ s⁻¹; in assay [16], 220000 M⁻¹ s⁻¹.

B2: 4M2-C12 mIgG1 (antibody)
heavy chain: EVKLVESGPGLVKPSQSLSLTCTVTGYSITSDYAWNWIRQFPGNKLEWMGYITYSGNISYNPSLRSRISITRDTSKNQFFLQLNSVTPEDTATYSCARSLYYPWYFDVWGAGTTVTVSSAKTTPPSVYPLAPGSAAQTNSMVTLGCLVKGYFPEPVTVTWNSGSLSSGVHTFPAVLQSDLYTLSSSVTVPSSTWPSETVTCNVAHPASSTKVDKKIVPRDCGCKPCICTVPEVSSVFIFPPKPKDVLTITLTPKVTCVVVDISKDDPEVQFSWFVDDVEVHTAQTQPREEQFNSTFRSVSELPIMHQDWLNGKEFKCRVNSAAFPAPIEKTISKTKGRPKAPQVYTIPPPKEQMAKDKVSLTCMITDFFPEDITVEWQWNGQPAENYKNTQPIMNTNGSYFVYSKLNVQKSNWEAGNTFTCSVLHEGLHNHHTEKSLSHSPGK
light chain: B1 light
As for B2, the dissociation rate constant (koff) in [2] was 0.125 s⁻¹; in assay [17], 0.016 s⁻¹; in assay [19], 0.117 s⁻¹; in assay [6] it was 0.016 s⁻¹; in assay [20] it was 0.125 s⁻¹; in [12] it was 0.117 s⁻¹. Besides, the kon amounted to 170000 M⁻¹ s⁻¹ in [3]; 170000 M⁻¹ s⁻¹ in assay [17]; 90000 M⁻¹ s⁻¹ in [19]; 270000 M⁻¹ s⁻¹ in assay [20]; 90000 M⁻¹ s⁻¹ in [10]; 270000 M⁻¹ s⁻¹ in [13]. In addition, the Kd was determined as 93.9 nM in assay [17]; 1300 nM in assay [19]; 1300 nM in [5]; 455 nM in [20]; 93.9 nM in [11]; 455 nM in [15]. In addition, in assay [18], the binding result is given as “no binding”.
